Results published in paper PMC7614608.

How the values were obtained:
ALYREFN (human) = assay: filter binding; settings: Filter binding: 150 mM KCl, 20 mM HEPES pH 7.9, 2 mM MgCl2, 5% glycerol, 0.5 mM TCEP, +/-1 mM ATPgS, 50 nM RNA, 20 C, 45 min; EJC assembly for TREX-EJC-RNA: …
UAP56 (human) = assay: filter binding; settings: Filter binding: 150 mM KCl, 20 mM HEPES pH 7.9, 2 mM MgCl2, 5% glycerol, 0.5 mM TCEP, +/-1 mM ATPgS, 50 nM RNA, 20 C, 45 min; EJC assembly for TREX-EJC-RNA: …
[1] = molecular target: ALYREF UBM (Homo sapiens) (UniProt Q86V81); settings: cited from earlier work

Sequence of UAP56 (Q13838 2-428): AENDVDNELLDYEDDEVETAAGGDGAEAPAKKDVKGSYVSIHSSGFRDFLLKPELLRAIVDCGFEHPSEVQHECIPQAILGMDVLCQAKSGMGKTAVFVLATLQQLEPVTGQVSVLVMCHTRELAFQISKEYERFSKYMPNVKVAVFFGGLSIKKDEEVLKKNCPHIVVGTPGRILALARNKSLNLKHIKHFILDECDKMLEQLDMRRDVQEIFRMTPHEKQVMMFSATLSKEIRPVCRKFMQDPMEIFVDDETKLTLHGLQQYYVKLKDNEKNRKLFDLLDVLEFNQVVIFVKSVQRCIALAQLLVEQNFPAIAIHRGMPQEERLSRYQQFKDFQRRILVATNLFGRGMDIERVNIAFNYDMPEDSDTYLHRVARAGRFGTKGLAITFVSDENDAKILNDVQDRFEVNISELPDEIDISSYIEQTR

Question: What does the source list for 400-nt AdML RNA?
Answer: Kd (ALYREFN (human)): 600 nM; Kd (UAP56 (human)): 900 nM

Question: Which Kd [1] does the source give for UAP56 (from UniProt Q13838) here?
Answer: Its Kd is 2900 nM.
